The data set deals with the molecule itself. Description: yeast two-hybrid mating assay, β-galactosidase reporter. The protocol: The dual reporter YM4271 yeast strains containing the USE-B1 and USE-B1b tandem repeats have been described previously (O'Mahoney et al. 1998). A two-hybrid mating assay was used to examine the transactivation and dimerisation functions of hMusTRD1α1. The yeast reporter strain Y190 (CLONTECH) was transformed with 1 μg of pAS2-1, pAS2-1:hMusTRD1α1, or pAS2-1:ΔhMusTRD1α1 using an alkali cation method (BIO 101, Inc., La Jolla, Calif.) and mated with Y187 cells carrying either pACTII, pGAD10:hMusTRD1α1 or, pACTII:ΔhMusTRD1α1. Transformants were selected on complete synthetic media plates lacking tryptophan and leucine (BIO 101). Diploid cells were grown to saturation and used to inoculate test cultures (OD₆₀₀=0.1) that were grown for a further 24 h at 30° C. Cells were harvested in 100 μl Breaking Buffer (100 mM Tris-HCl pH 8, 20% glycerol, 5 mM PMSF, 2 mM DTT) and lysed by vortexing with glass beads. Protein concentration was determined by the Bradford method (Bio-Rad Laboratories, Sydney, NSW). Protein extracts (20 μg) were assayed for β-galactosidase activity with a chemiluminescence detection kit (CLONTECH) and a Turner Designs 20/20 luminometer (Sunnyvale, Calif.).

This note sets out measurements from patent US20050032696A1 (published 2005).

B1: ΔhMusTRD1α1 (truncated human MusTRD1α1, amino acids 1-458) (other)
chain: MALLGKRCDVPTNGCGPDRWNSAFTRKDEIITSLVSALDSMCSALSKLNAEVACVAVHDESAFVVGTEKGRMFLNARKELQSDFLRFCRGPPWKDPEAEHPKKVQRGEGGGRSLPRSSLEHGSDVYLLRKMVEEVFDVLYSEALGRASVVPLPYERLLREPGLLAVQGLPEGLAFRRPAEYDPKALMAILEHSHRIRFKLKRPLEDGGRDSKALVELNGVSLIPKGSRDCGLHGQAPKVPPQDLPPTATSSSMASFLYSTALPNHAIRELKQEAPSCPLAPSDLGLSRPMPEPKATGAQDFSDCCGQKPTGPGGPLIQNVHASKRILFSIVHDKSEKWDAFIKETEDINTLRECVQILFNSRYAEALGLDHMVPVPYRKIACDPEAVEIVGIPDKIPFKRPCTYGVPKLKRILEERHSIHFIIKRMFDERIFTGNKFTKDTTKLEPASPPEDTSAEVS
notes: the fusion parts are not written into the chain; In the COS-7 Western blot it was expressed from pCI-neo; also called ΔMusTRD; hMusTRD1α1458aa
With B1, the binding result was “binds”.
